Tests used:
[1] = molecular target: T1, AlkB (Escherichia coli, UniProt P05050 1-216); experiment: stopped-flow FRET, global fit (enzyme-product complex); Fe(II), aKG; after turnover; 50 mM HEPES-KOH pH 7.5, 50 mM KCl, 10 mM MgCl2, 40 uM Fe(II), 1 mM aKG, 2 mM ascorbate (composition as given for the anaerobic runs); stopped-flow at 37 C; titration temperature not given in the material; settings: protein: recombinant, tags: His6, label: 5'-FAM
T1 sequence: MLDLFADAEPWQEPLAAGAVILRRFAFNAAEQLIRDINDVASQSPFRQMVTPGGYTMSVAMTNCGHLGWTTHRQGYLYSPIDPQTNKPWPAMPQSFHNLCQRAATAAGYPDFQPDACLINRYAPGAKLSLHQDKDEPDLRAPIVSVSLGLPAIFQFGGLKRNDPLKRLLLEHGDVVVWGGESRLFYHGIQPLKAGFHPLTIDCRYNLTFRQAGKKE

[2] = molecular target: T1, AlkB; experiment: stopped-flow FRET; Fe(II), aKG; 50 mM HEPES-KOH pH 7.5, 50 mM KCl, 10 mM MgCl2, 40 uM Fe(II), 1 mM aKG, 2 mM ascorbate (composition as given for the anaerobic runs); stopped-flow at 37 C; titration temperature not given in the material; settings: protein: recombinant; tags: His6; label: 5'-FAM, 3'-BHQ1 on strand 1; blunt
[3] = molecular target: T1, AlkB; experiment: stopped-flow 2aPu fluorescence, global fit (enzyme-product complex); Fe(II), aKG; after turnover; 50 mM HEPES-KOH pH 7.5, 50 mM KCl, 10 mM MgCl2, 40 uM Fe(II), 1 mM aKG, 2 mM ascorbate (composition as given for the anaerobic runs); stopped-flow at 37 C; titration temperature not given in the material; settings: protein: recombinant, tags: His6, label: 2-aminopurine
[4] = molecular target: T1, AlkB; experiment: stopped-flow Trp fluorescence, from rate constants of steps 1-3; Fe(II), aKG; 50 mM HEPES-KOH pH 7.5, 50 mM KCl, 10 mM MgCl2, 40 uM Fe(II), 1 mM aKG, 2 mM ascorbate (composition as given for the anaerobic runs); stopped-flow at 37 C; titration temperature not given in the material; settings: protein: recombinant; tags: His6; single strand

B1: ds15A_FRET (demethylated product of ds15m1A_FRET) (dsDNA)
DNA 1: ACAGGATCCGGCATA
DNA 2: TATGCCGGATCCTGT
B1 showed a Kd ([1]; 3'-BHQ1 on strand 1, blunt) of 4400 nM.

B2: ds15m1A_FRET (dsDNA)
DNA 1: ACAGGATCCGGCATA
DNA 2: TATGCCGGATCCTGT
modifications: N1-methyladenine at position 6 of strand 1
B2: binds [2].

B3: ss15A_FRET (demethylated product of ss15m1A_FRET) (ssDNA)
DNA: ACAGGATCCGGCATA
B3 gave a Kd ([1]; 3'-BHQ1, single strand) of 310 nM.

B4: ds15A_2aPu (demethylated product of ds15m1A_2aPu) (dsDNA)
DNA 1: ACAGGAACCGGCATA
DNA 2: TATGCCGGTTCCTGT
modifications: 2-aminopurine at position 7 of strand 1 (written A)
B4 gave a Kd ([3]; blunt) of 1800 nM.

B5: ss15m1A (ssDNA)
DNA: ACAGGATCCGGCATA
modifications: N1-methyladenine at position 6
Work on B5 yielded a Kd [4] of 4.3 nM.

B6: ss15A_2aPu (demethylated product of ss15m1A_2aPu) (ssDNA)
DNA: ACAGGAACCGGCATA
modifications: 2-aminopurine at position 7 (written A)
For B6, the Kd ([3]; single strand) was 2200 nM.
